From patent US6653127B1, “Single-chain recombinant complexes of hepatitis C virus NS3 protease and NS4A cofactor peptide” (Schering Corporation, priority 1997, dated 2003)

Legend:
[1] = ATPase activity, [a-32P]ATP hydrolysis by thin layer chromatography; type: biochemical
Procedure: ATPase activity of the covalent His-NS4A21-32-GSGS-NS33-631 complex (SEQ ID NO: 4) was monitored by direct measurement of [a-^32P]ATP hydrolysis using thin layer chromatography. The enzyme was incubated with 1 mM ATP mixed with [a-^32P]ATP (3000 Ci/mmol, approximately 0.5 mCi per reaction) in a reaction buffer containing 50 mM HEPES [pH 7.3], 10 mM KCl, 0.5 mM DTT, […] bovine serum albumin, fraction V (BSA), 1 mM MgCl2 in the presence or absence of 1 mM polyuridylic acid (poly U) (Pharmacia, Piscataway, N.J.) in a final volume of […]. The reaction was carried out at 37 ∞C. for 1 h and terminated by an addition of […] of 0.5 M EDTA. Half a microliter of the reaction mix was spotted onto a polyethyleneimine-cellulose sheet (SA Scientific Adsorbents Inc., Atlanta, Ga.) and developed by ascending chromatography in 0.375 M potassium phosphate buffer [pH 3.5]. The cellulose sheet was dried and quantified with a Storm 860 PhosphoImager (Molecular Dynamics, Sunnyvale, Calif.).

[2] = biological target: T1, helicase domain of the NS3 protein (Hepatitis C virus genotype 1b, UniProt P26663, A1092G/F1173S/K1113A/P1112Q); assay: Autocleavage observed during purification; parameters: species or system HCV
T1 construct: N-terminal end of the NS3 protease (NS3 amino acids 3-631) via the linker GSGS; histidine tag followed by a thrombin site (N); made in house; host or cells: E. coli BL21(DE3)
Excerpt: Also provided are NS4A-tethered forms of NS3 full-length domain. […] To prevent autocleavage of the full-length covalent complexes, the catalytic serine residue at position 139 is mutated to alanine. The amino acid sequence of one such embodiment is defined by SEQ ID NO: 15. The mutation of the full length constructs at position 139 can also be made in the NS4A-tethered forms of the NS3 catalytic domain, and can be made in combination with any of the aforementioned mutations to increase solubility and stability while preventing autocleavage. Representative embodiments are set forth in SEQ ID NOs: 5-8, 15-18 and 20.

[3] = system: double stranded RNA substrate; assay: Nucleic acid unwinding activity, scintillation proximity assay; type: biochemical
Procedure: The newly engineered single-chain recombinant His-NS4A21-32-GSGS-NS33-631 (SEQ ID NO: 4) was assayed for nucleic acid unwinding activity using a scintillation proximity assay (SPA, Amersham Life Science Inc., Arlington Height, Ill.). The unwinding activity present in this covalent His-NS4A21-32-GSGS-NS33-631 complex was compared with that of the full length His-NS31-631-NS4A1-54 complex under their corresponding optimal buffer conditions. The double stranded RNA substrate (Oligos, Etc., Inc. Wilsonville, Oreg.) used in the assay contained a template 5′-GCUCGCCCGGGGAUCCUCUAGGAAUACACGUUCGAU-3′ (SEQ ID NO: 121) annealed to a primer 5′-CUAGAGGAUCCCCGGGCGAGCCCUAUAGUGAGUCGU-3′ (complementary sequences of the template and the primer are underlined). This substrate is end-labeled with ^33P using T4 polynucleotide kinase.
The assay conditions for the covalent His-NS4A21-32-GSGS-NS33-631 complex were 100 mM MOPS [pH 7.0], 0.5 mM MgCl2, 2 mM ATP, 0.5 mM DTT, […] BSA, 2% dimethylsulfoxide (DMSO) and 1 U RNase inhibitor (5 prime→3 prime, Inc., Boulder, Colo.). For the full length His-NS31-631/NS4A1-54 complex, the assay conditions were 100 mM PIPES [pH 6.0], 1 mM MgCl2, 2 mM ATP, 0.6 mM DTT, […] BSA and 1 U RNase inhibitor. In both reactions, 0.5 nM double stranded RNA substrate in a final volume of […] was used. The reaction was carried out at 37 ∞C. for 1 h and terminated by an addition of […] of 0.5 M EDTA. The released primer was captured using […] of 100 nM biotinylated capture oligomer (5′-biotin-GCT-CGC-CCG-GGG-ATC-CTC-TAG-3′) (Gibco/BRL, Grand Island, N.Y.) (SEQ ID NO: 123) in 2×hybridization buffer (40 mM HEPES [pH 7.3], 2M NaCl, 2 mg/ml BSA) at 37 ∞C. for 1 h. The primer-oligomer complex was retained by Streptavidin coated SPA beads (SPA, Amersham Life Science Inc., Arlington Height, Ill.), filtered and washed thoroughly with wash buffer (20 mM HEPES [pH 7.3], 15 mM NaCl, 1.5 mM sodium citrate and 0.05% SDS). The amount of the released labeled primer was quantified using a TopCount reader (Packard A991200, Meriden, Conn.).

B1: His-NS4A21-32-GSGS-NS33-631: NS4A 21-32 tethered by GSGS to full-length NS3 residues 3-631, His tag; printed SEQ ID NO: 4 (protein)
chain: MGSSHHHHHHSSGLVPRGSHMGSVVIVGRIILSGSGSITAYSQQTRGLLGCKKTSLTGRDKNQVEGEVQVVSTATQSFLATCVNGVCWTVYHGAGSKTLAGPKGPITQMYTNVDQDLVGWQAPPGARSLTPCTCGSSDLYLVTRHADVIPVRRRGDSRGSLLSPRPVSYLKGSSGGPLLCPSGHAVGIFRAAVCTRGVAKAVDFVPVESMETTMRS
modifications: His tag
increase of ATP hydrolysis in the presence of poly U ([1]; 1 mM poly U, all enzyme concentrations examined): 8-13 fold | ATPase activity ([1]; FIG. 7, 1 mM ATP, 37 C, 1 h): poly U dependent ATPase activity which was proportional to the concentration of the enzyme | ATP hydrolysis in the absence of poly U ([1]; no poly U): minimal | autocleavage in the helicase domain during purification [2]: a considerable amount of autocleavage | fold less complex required for similar percentage of unwound products vs full length His-NS31-631/NS4A1-54 [3]: 10 fold | nucleic acid unwinding activity ([3]; FIG. 6, 37 C, 1 h, 0.5 nM dsRNA): proportional to the concentration of enzyme | product released, fold more than equivalent concentration of full length His-NS3/NS4A1-54 complex ([3]; linear range of the assay, 1-10 pM enzyme): 5-6 fold
